Results as given in publication PMC6440998, “Tunable microsecond dynamics of an allosteric switch regulate the activity of a AAA+ disaggregation machine” (Nature Communications, 2019).

B1: Thermus thermophilus ClpB, wild type (natural protein)
chain: not shown
notes: ClpB of Thermus thermophilus, cloned into pET28b with a six-histidine tag preceded by a TEV site; Homohexamer; also called TT ClpB; WT; source: E. coli BL21 (DE3) pLysS, purified (Ni-NTA, HiPrep DEAE FF)
B2: ClpB S428C-S771C, double-labeled subunit (natural protein)
chain: not shown
modifications: Alexa 488 C5 maleimide (donor) and Alexa 594 C5 maleimide (acceptor) on the cysteines at 428 and 771
notes: ClpB of Thermus thermophilus with two cysteines for the dyes; S428C-S771C is the main construct; also called double-labeled subunits; labeled ClpB; source: E. coli BL21 (DE3) pLysS, purified (Ni-NTA, HiPrep DEAE FF), labeled

Assays:
[1] = biological target: the molecule itself; assay: not stated; test of hexamer assembly shown in Supplementary Figs. 3 and 13 and the supplementary section “Validating the structural integrity of ClpB hexamers”; 2 mM ATP for the labeled sample
[2] = biological target: B1; assay: native gel or EMSA + SEC; native gel electrophoresis and gel filtration chromatography of reassembled mixed labeled ClpB and of the WT; conditions: both partners purified

Row | binding result [2] | Binder | stoichiometry N [1]
1 | – | B1 | 6
2 | binds | B2 | –
